For three molecules, percentage of the specific HTRF signal, IC50 and EC50 results are on record in patent US20240209094A1 (PIERRE FABRE MEDICAMENT, published 2024).

Test [1] addresses T1, hVISTA-Fc labelled with d2 (human, UniProt Q9H7M9 33-194, labelled with d2 (HTRF acceptor); site not stated).
T1 construct: It may be the same protein as rhVISTA-Fc of the Biacore assay, with a d2 label; also called VISTA-Fc-d2; not shown: Fc
T1 sequence: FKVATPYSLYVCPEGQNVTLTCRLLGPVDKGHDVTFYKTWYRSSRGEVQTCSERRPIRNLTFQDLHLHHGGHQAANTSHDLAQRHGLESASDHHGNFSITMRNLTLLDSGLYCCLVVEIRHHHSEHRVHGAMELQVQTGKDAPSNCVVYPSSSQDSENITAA
Kind of test: HTRF, VISTA-Fc-d2 and PSGL1-His/anti-His-Tb, pH 6; antibody at 0.31 µg/mL; mean of 3 experiments. (In general: Time-resolved FRET reads energy transfer from a long-lived donor to a nearby acceptor.)

Test [2] concerns the target T1, hVISTA-Fc labelled with d2. The test can be described thus: HTRF, VISTA-Fc-d2 and PSGL1-His/anti-His-Tb, pH 6; antibody at 5 µg/mL; mean of 3 experiments.
Test [3] deals with T1, hVISTA-Fc labelled with d2. The test can be described thus: HTRF competition, VISTA-Fc-d2 and PSGL1-His/anti-His-Tb, pH 6.
Test [4] concerns the target T1, hVISTA-Fc labelled with d2. The test can be described thus: HTRF, VISTA-Fc-d2 and PSGL1-His/anti-His-Tb, pH 6; antibody at 10 µg/mL; mean of 3 experiments.
For test [5], the target named is T1, hVISTA-Fc labelled with d2. Kind of test: HTRF, VISTA-Fc-d2 and PSGL1-His/anti-His-Tb, pH 6; antibody at 0.16 µg/mL; mean of 3 experiments.
Test [6] concerns the target T1, hVISTA-Fc labelled with d2. The test can be described thus: HTRF, VISTA-Fc-d2 and PSGL1-His/anti-His-Tb, pH 6; antibody at 1.25 µg/mL; mean of 3 experiments.
Test [7] has as its target T1, hVISTA-Fc labelled with d2. The test can be described thus: HTRF, VISTA-Fc-d2 and PSGL1-His/anti-His-Tb, pH 6; antibody at 0.63 µg/mL; mean of 3 experiments.
In test [8] the target is T1, hVISTA-Fc labelled with d2. Kind of test: HTRF, VISTA-Fc-d2 and PSGL1-His/anti-His-Tb, pH 6; antibody at 2.5 µg/mL; mean of 3 experiments.
Test [9] addresses T2, recombinant human (rh) VISTA-His protein (human, UniProt Q9H7M9 33-194).
T2 construct: A soluble His-tagged protein is probably the extracellular domain; also called rhVISTA-TagHis; rhVISTA-his (monomer); not shown: His tag
T2 sequence: T1 sequence
Kind of test: direct ELISA, rhVISTA-His coated on plate; experiment n1. On the procedure: (§1) After incubation, the coating solution was removed and plates were blocked by adding 250 μl blocking buffer (0.5% gelatin in 1×PBS) for at least 1 hour at 37° C.
(In general: In an ELISA, binding on a coated surface is turned into a signal by an enzyme label.)

Test [10] deals with T2, recombinant human (rh) VISTA-His protein. The test can be described thus: direct ELISA, rhVISTA-His coated on plate; experiment n2. On the procedure:
as §1

For test [11] the target is unchanged. Kind of test: indirect ELISA, rhVISTA-His captured by coated anti-His antibody; Mean EC50 'Prism' n = 3. On the procedure:
as §1

Test [12] has the same target. Kind of test: indirect ELISA, rhVISTA-His captured by coated anti-His antibody; experiment n2. The protocol: as §1
Test [13] shares this target. The test can be described thus: direct ELISA, rhVISTA-His coated on plate; experiment n3. The protocol: as §1
The target is the same in test [14]. Kind of test: indirect ELISA, rhVISTA-His captured by coated anti-His antibody; mean EC50 of n1-n3. On the procedure: as §1
Test [15] shares this target. Kind of test: direct ELISA, rhVISTA-His coated on plate; mean EC50 of n1-n3. On the procedure:
as §1

For test [16] the target is unchanged. Kind of test: indirect ELISA, rhVISTA-His captured by coated anti-His antibody; experiment n3. On the procedure: as §1
The target is the same in test [17]. The test can be described thus: direct ELISA, rhVISTA-His coated on plate; Mean EC50 'Prism' n = 3. On the procedure:
as §1

The target is the same in test [18]. The test can be described thus: indirect ELISA, rhVISTA-His captured by coated anti-His antibody; experiment n1. On the procedure: as §1

Substitutions are numbered along the chain they refer to. Names and notes keep the numbering of the source. Values joined by “and” are separate entries in the source; they are usually repeats but may differ in a detail not shown here. Equal values may be shown once.

As for “anti-VISTA R&D Systems #71261 (antibody)”, the percentage of the specific HTRF signal was determined as 88% in [1]; 50% in test [2]; 34% in test [4]; 89% in test [5]; 68% in [6]; 81% in [7]. In [8], this molecule gave a percentage of the specific HTRF signal of 63%. Besides, in [3], the IC50 – broadly, the concentration at which inhibition is half-maximal – amounted to 333 nM.

B1: anti-VISTA antibody Ab1 (N55D substitution in the CDR-H2) (antibody, human IgG1, kappa, V domains shown)
VH: QVQLVQSGAEVKKPGASVKISCKASGFSFTGYTMNWVRQAPGQGLEWIGLISPYDGGTSYAQKFQGRATLTVDTSTSTAYMELSSLRSEDTAVYYCARRAYGYAMDYWGQGTLVTVSS
VL: EIVLTQSPATLSLSPGERVTMSCSASSSVSYMYWYQQKPGQAPRLLIYDTSNLASGVPARFSGSGSGTDYTLTISSMEPEDFAVYYCQQWSSYPFTFGQGTKLEIKR
modifications: N-terminal glutamine mainly in the pyroglutamic acid form; N-glycan at Asn298; most of the C-terminal lysines clipped
notes: also called anti-VISTA Ab1
For the molecule B1, the EC50 (in general, the midpoint of the concentration-response curve) in test [9] is 1.04 nM; in [10], 1.08 nM; in [11], 0.0471 nM; in test [12], 0.0447 nM; in test [13] it was 0.928 nM; in test [14], 0.0471 nM. Moreover, the concentration for a half-maximal effect (EC50) in test [15] amounted to 1.02 nM; in test [16], 0.0465 nM; in test [17] it was 1.02 nM; in [18], 0.0501 nM. The same molecule came in with an IC50 in test [3] of 2.3 nM.

B2: monoclonal antibody Ab3 (unmutated antibody) (antibody, human IgG1, kappa, V domains shown)
VH: B1 VH with D55N
VL: B1 VL
modifications: partly deamidated at N55 (mixture of N55/N55, N55/D55 and D55/D55 charge variants)
notes: The batch is kept in the printed label of each row; also called Ab 3 batch 1; Ab 3 batch 2
Regarding B2, the EC50 was 0.641 nM and 1.1 nM in test [9]; 0.728 nM and 0.877 nM in test [10]; 0.0393 nM in test [11]; 0.0342 nM and 0.0418 nM in test [12]; 0.645 nM and 0.901 nM in test [13]; 0.0396 nM and 0.0393 nM in [14]. The 50% effective concentration (EC50) in [15] was 0.671 nM and 0.961 nM; in test [16], 0.0386 nM and 0.038 nM; in test [17], 0.959 nM and 0.671 nM; in test [18], 0.0458 nM and 0.0382 nM.
